PMC10449523, “A polysaccharide utilization locus from Chitinophaga pinensis simultaneously targets chitin and β-glucans found in fungal cell walls” (mSphere, 2023)

Tests used:
Experiment in all cases: fluorescent release of 4-methylumbelliferone (chitinase assay kit CS1030)
Assay type in all cases: biochemical, Chitinophaga pinensis
Conditions in all cases: kit manufacturer's conditions
[1] = substrate: CC(=O)N[C@H]1[C@H](Oc2ccc3c(C)cc(=O)oc3c2)O[C@H](CO)[C@@H](O[C@@H]2O[C@H](CO)[C@@H](O[C@@H]3O[C@H](CO)[C@@H](O)[C@H](O)[C@H]3NC(C)=O)[C@H](O)[C@H]2NC(C)=O)[C@@H]1O
Excerpt: fluorescent release of 4-methylumbelliferone (chitinase assay kit CS1030) on CpChiB-CBM6

[2] = substrate: CC(=O)N[C@H]1[C@H](Oc2ccc3c(C)cc(=O)oc3c2)O[C@H](CO)[C@@H](O[C@@H]2O[C@H](CO)[C@@H](O[C@@H]3O[C@H](CO)[C@@H](O)[C@H](O)[C@H]3NC(C)=O)[C@H](O)[C@H]2NC(C)=O)[C@@H]1O; remark: listed apart in the source
Excerpt: fluorescent release of 4-methylumbelliferone (chitinase assay kit CS1030) on CpChiB

[3] = substrate: CC(=O)N[C@H]1[C@H](Oc2ccc3c(C)cc(=O)oc3c2)O[C@H](CO)[C@@H](O[C@@H]2O[C@H](CO)[C@@H](O[C@@H]3O[C@H](CO)[C@@H](O)[C@H](O)[C@H]3NC(C)=O)[C@H](O)[C@H]2NC(C)=O)[C@@H]1O; remark: listed apart in the source
Excerpt: fluorescent release of 4-methylumbelliferone (chitinase assay kit CS1030) on […]

[4] = substrate: CC(=O)N[C@H]1[C@H](Oc2ccc3c(C)cc(=O)oc3c2)O[C@H](CO)[C@@H](O[C@@H]2O[C@H](CO)[C@@H](O[C@@H]3O[C@H](CO)[C@@H](O)[C@H](O)[C@H]3NC(C)=O)[C@H](O)[C@H]2NC(C)=O)[C@@H]1O; remark: listed apart in the source
Excerpt: fluorescent release of 4-methylumbelliferone (chitinase assay kit CS1030) on CpChiAC-CBM5

B1: CpChiB-CBM6 (Chitinophaga pinensis DSM 2588) (protein)
chain: QFKVVGYMPSWSGSVSAIQYSKLTHINYAFALPTSTGGLQPIENPSKLSSLVSSGHANGVKVLIAIGGWNNGDDGAFESLAANATYRTNFVNNVMNFVNQYGLDGVDMDWEYPDAGASANNYLALMQQLSTALHNNGKLLTAAVVGTGGASILNGVFNVVDFLNLMAYDYNNYEHSTYTYASQSLSYWVGRGLPASKAILGVPFYARPSWNSYATLLANGANPNSDYFGSDYYNGLPTIRSKTNLAFDQGGGIMMWELSQDATGANSLLSAIYQVKLDRTGTNPPTGSTLIQAENYTSMSGVQVEATTDAGGGSNVGYIETGDWLAYANINFPTSGAYKVEYRVASQSTGGQLSLDLNSGAIVLGYLNVPVTGGWQTWTTISHNVNVTAGTYSLGVYAQSGGWNINWIRITKVAS
notes: C-terminal His6 tag (pET21a), E. coli BL21(DE3)
- Km [1]: 120 ± 3 µM
- kcat [1]: 1.005 ± 0.0533 s⁻¹
- kcat/Km [1]: 8150 M⁻¹ s⁻¹

B2: CpChiB (Chitinophaga pinensis DSM 2588) (protein)
chain: QFKVVGYMPSWSGSVSAIQYSKLTHINYAFALPTSTGGLQPIENPSKLSSLVSSGHANGVKVLIAIGGWNNGDDGAFESLAANATYRTNFVNNVMNFVNQYGLDGVDMDWEYPDAGASANNYLALMQQLSTALHNNGKLLTAAVVGTGGASILNGVFNVVDFLNLMAYDYNNYEHSTYTYASQSLSYWVGRGLPASKAILGVPFYARPSWNSYATLLANGANPNSDYFGSDYYNGLPTIRSKTNLAFDQGGGIMMWELSQDATGANSLLSAIYQVKLDR
notes: as for B1
- Km [2]: 240 ± 10 µM
- kcat [2]: 2.199 ± 0.148 s⁻¹
- kcat/Km [2]: 8850 M⁻¹ s⁻¹

B3: CpChiAC (Chitinophaga pinensis DSM 2588) (protein)
chain: KVVVGYWQNWNLASAPYIRLRDVDSRYNVIEVAFGTTSSDLSTVNFTPEGTTVADFKADIATLQAQGRKVLLSLGGETGTLVINTEANKQAFISSMKNLLDSYNFDGFDLDIEGGTSLQLNNGDNNFMAPTTPKVVNLIAAAKEIISYRKAQGKNCLLTMAPETYYVQTAYGATYSPLVGAYLPIIYGLRNELSWIQPQLYNTGSVMGLDNKVYNSTTADFIVSMTEMLLQGFPVSGTSQTFPALREDQVAFGLPAAPGAAGSGYTAPAEVKKALNYLTKGQSYGGTYVIRKAAGYPGLRGIMTWSVNWDKVNNSEFAANYYPYFFGT
notes: as for B1
- Km [3]: 220 ± 3 µM
- kcat [3]: 2.6587 ± 0.035 s⁻¹
- kcat/Km [3]: 11800 M⁻¹ s⁻¹

B4: CpChiAC-CBM5 (Chitinophaga pinensis DSM 2588) (protein)
chain: KVVVGYWQNWNLASAPYIRLRDVDSRYNVIEVAFGTTSSDLSTVNFTPEGTTVADFKADIATLQAQGRKVLLSLGGETGTLVINTEANKQAFISSMKNLLDSYNFDGFDLDIEGGTSLQLNNGDNNFMAPTTPKVVNLIAAAKEIISYRKAQGKNCLLTMAPETYYVQTAYGATYSPLVGAYLPIIYGLRNELSWIQPQLYNTGSVMGLDNKVYNSTTADFIVSMTEMLLQGFPVSGTSQTFPALREDQVAFGLPAAPGAAGSGYTAPAEVKKALNYLTKGQSYGGTYVIRKAAGYPGLRGIMTWSVNWDKVNNSEFAANYYPYFFGTTPGNQSPVVSITSPASGASFTAPASITITASASDADGSIAKVEFYNGATKLGQATAAPYSYTWTNVAAATYSLTAVATDNAGAVTTSAAVSVTVNGTGGNTCDGIAAWSATIAYNGSQQVVYNGKIYTAKWWTQGDQPDTHSGADQVWAYVRDCGGSNPGNQAPTVSITSPSAGASFSAPATVTIQATAADADGTIAKVEFYNGNTKLGEVTASPYSYTWGNVAAGAYSITAVATDNGSKSTTSAAVAIQVGSGNTGNCAGVAAYEPFPKVYNQGDKVVYNGVLYESQSNGLYNVTPGTADWWWKPLGACGAAARVAVVSPEPDGVNADSKLVVFPNPLTGTVLKVQINAAQGEKVLIELWSTNGNAILRKQIVAGAKGQQTVDLDVSQVPAGSWILKTSNQQSGRKSAAKVIRL
notes: as for B1
- Km [4]: 290 ± 0.2 µM
- kcat [4]: 3.0285 ± 0.0383 s⁻¹
- kcat/Km [4]: 10600 M⁻¹ s⁻¹
